# Biological target: AffiTagged cyclicPfAMA1-DI (folded protein 45) (Plasmodium falciparum)
# Test: SPR; AffiTagged cyclicPfAMA1-DI held on a nickel-NTA chip (BI-4500, Biosensing Instrument Inc.), PfRON2_(2021-2059) in solution; kinetic fit, average of three repeats
substance,measurement,value
PfRON2_(2021-2059) peptide (rhoptry neck protein 2 ectodomain peptide) (from UniProt Q8IKV6 2021-2059),Kd,500 nM
same,koff,0.0708 s⁻¹
same,kon,142000 M⁻¹ s⁻¹
